The record followed here is patent publication US20190381088, “ANTI-IL-17 APTAMER HAVING IMPROVED RETENTION IN BLOOD” (ZENYAKU KOGYO CO., LTD., published 2019).

The target in data set [1] is T1, IL-17 (human IL-17) (Homo sapiens, UniProt Q16552 Q16552:24-155).
T1 sequence: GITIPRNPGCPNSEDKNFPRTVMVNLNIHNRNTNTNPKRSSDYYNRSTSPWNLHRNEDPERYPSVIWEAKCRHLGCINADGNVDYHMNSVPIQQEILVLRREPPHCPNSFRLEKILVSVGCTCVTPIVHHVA
Briefly: cell_activity; inhibition of IL-17 (10 ng/mL) + mouse TNF induced IL-6 in NIH3T3 cells, 37 C preincubation 30 min. To be noted: chain copies: 2 inferred (homodimer). The method, then: (§1) Human IL-17 (10 ng/mL) and aptamers diluted to various concentrations were pre-incubated at 37° C. for 30 min, and added to NIH3T3 cells (ATCC, CRL1658, 1.25×10⁵ cell/mL) together with mouse TNF (2 ng/mL). Then, after incubation for 24 hr, the culture supernatant was collected. After preservation at −70° C., the amount of produced IL-6 was measured by the ELISA method. The IL-17 inhibitory action of each aptamer was evaluated from the amount of produced IL-6.
A microtiter plate for ELISA was coated with rat anti-mouse IL-6 antibody (BD Biosciences, 2 μg/mL; 100 μL/well) diluted with PBS, and incubated at 4° C. overnight. The next day, the microtiter plate was washed 3 times with PBS/0.05% Tween 20, and blocked with PBS/1% BSA (200 μL/well) at room temperature for 2 hr. Then, the plate was washed 3 times with PBS/0.05% Tween 20. Recombinant mouse IL-6 (BD Biosciences; 100 μL/well) serially diluted with PBS/1% BSA/0.05% Tween 20 or culture supernatants (100 μL/well) were added to the plate. After incubation at room temperature for 2 hr, the plate was washed 3 times with PBS/0.05% Tween 20. Then, 100 μL/well of biotin conjugated rat anti-mouse IL-6 antibody (BD Biosciences) was added at final dilution of 1/500, and the mixture was reacted at room temperature for 1 hr. After washing 3 times with PBS/0.05% Tween 20, 100 μL/well of alkaline phosphatase conjugated streptavidin was added at final dilution of 1/1000. After 30 min at room temperature, the plate was again washed 4 times with PBS/0.05% Tween 20, and a substrate (1-Step PNPP; Thermo Fisher Scientific Inc; 100 μL/well) was added. After 15 min, aqueous sodium hydroxide solution (2N: 50 μL/well) was added to stop the reaction, and the plate was read on a microtiter reader (Bio-Rad) by using a 405 nm filter.

Data set [2] deals with T1, IL-17 (human IL-17). Briefly: cell_activity; nucleic acid alone; IL-6 release from NIH3T3 cells. The following applies: chain copies: 2 inferred (homodimer). The procedure: Aptamers in which a brancher, a spacer, an ssH amino linker were added to the nucleic acid sequences of Example sequences 1, 2, 3 and 4, and 40 kDa 2 branched PEG was added (total PEG molecular weight: 80 kDa each) were synthesized (FIG. 1 structure 1). The IL-17 neutralization activity of each aptamer was measured along with the aptamer having the original nucleic acid sequence alone. The evaluation was based on the measurement of the amount of IL-6 released in the cultured cells by the stimulation of IL-17 and TNFα to the cells.
as §1
A microtiter plate for ELISA was coated with rat anti-mouse IL-6 antibody (BD Biosciences, 2 μg/mL; 100 μL/well) diluted with PBS, and incubated at 4° C. overnight. The next day, the microtiter plate was washed 3 times with PBS/0.05% Tween 20, and blocked with PBS/1% BSA (200 μL/well) at room temperature for 2 hr. Then, the plate was washed 3 times with PBS/0.05% Tween 20. […]

B1: Example sequence 1 (aptamer No. 8) PEG-linker-spacer-brancher (mixed)
mixed: GGGUAGCCGGAGGAGTCAGTAAUCGGUACCC
modifications: 2'-OMe at 1-4,7,8,10,13,14,23-26,28; 2'-F at 11,17,18,27; PS at g6; DNA at A5,G9,T16,T20,C29-C31; rest 2'-OH RNA; 3' idT (stated for in vivo tests); 5' symmetrical brancher with spacer + ssH amino linker + 2 x 40 kDa branched PEG (80 kDa total)
Consider B1, for which the IC50 (commonly the concentration that inhibits the measured activity by half) with IL-17 (human IL-17) [1] amounted to 0.041 nM.

B2: Example sequence 4 (aptamer No. 93) nucleic acid alone (mixed)
mixed: B1 mixed
modifications: 2'-OMe at 1-4,7,8,10,13,14,23-26,28-31; 2'-F at 11,17,18,27; PS at g6; DNA at A5,G9,T16,T20; rest 2'-OH RNA; no PEG
In the data set with IL-17 (human IL-17) [2], B2 displayed an IC50 of 0.123 nM.

B3: Example sequence 2 (aptamer No. 48) PEG-linker-spacer-brancher (mixed)
mixed: B1 mixed
modifications: 2'-OMe at 1-4,7,8,10,13,14,23-26,28; 2'-F at 17,27; DNA at A5,G9,T16,T20,C29-C31; rest 2'-OH RNA; 3' idT (stated for in vivo tests); 5' symmetrical brancher with spacer + ssH amino linker + 2 x 40 kDa branched PEG (80 kDa total)
Turning to B3, in the data set with IL-17 (human IL-17) [1], the IC50 stood at 0.18 nM.

B4: Example sequence 1 (aptamer No. 8) nucleic acid alone (mixed)
mixed: B1 mixed
modifications: 2'-OMe at 1-4,7,8,10,13,14,23-26,28; 2'-F at 11,17,18,27; PS at g6; DNA at A5,G9,T16,T20,C29-C31; rest 2'-OH RNA; no PEG
Consider B4, for which, in the data set with IL-17 (human IL-17) [2], the midpoint of inhibition, the IC50, lay at 0.223 nM.

B5: Example sequence 4 (aptamer No. 93) PEG-linker-spacer-brancher (mixed)
mixed: B1 mixed
modifications: 2'-OMe at 1-4,7,8,10,13,14,23-26,28-31; 2'-F at 11,17,18,27; PS at g6; DNA at A5,G9,T16,T20; rest 2'-OH RNA; 3' idT (stated for in vivo tests); 5' symmetrical brancher with spacer + ssH amino linker + 2 x 40 kDa branched PEG (80 kDa total)
As to B5, the concentration for half-maximal inhibition (IC50) with IL-17 (human IL-17) [1] was 0.06 nM.
